From the supplement of paper PMC9170038

Tested on: K4 kissing-loop RNA reporter
Assay: apparent KD of K4 kissing-loop reporter; higher = weaker reporter binding
Details: Eterna round: R107
Protocol: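 RNA-MaP round R107: designed RNA switches with theophylline, tryptophan, arginine or FMN aptamers are transcribed on-chip within common flanks. They are titrated with a labelled K4 kissing-loop RNA reporter in RNA-MaP buffer (100 mM Tris pH 7.5, 80 mM KCl, 4 mM MgCl2), without ligand or with the indicated ligand. Median apparent KD per design.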

[1] = input ligand: theophylline 20 uM
[2] = input ligand: tryptophan 2.4 mM
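Note: bound reporter read as fluorescence of individual clusters on recovered sequencing chips by microscopy, with normalized cluster intensities fitted with a binding model.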

Sequence | apparent KD of K4 kissing-loop reporter (input ligand: FMN 200 uM) [nM] | apparent KD of K4 kissing-loop reporter (input ligand: arginine 13.2 mM) [nM] | apparent KD of K4 kissing-loop reporter (input ligand: none) [nM] | apparent KD of K4 kissing-loop reporter [1] [nM] | apparent KD of K4 kissing-loop reporter [2] [nM]
CGCCGGAAGGCGAGCGCUCCCACUCCGGAAGGAGCGCCCGAAAGGGCAGGUAGGUCGCCGGAGUGAUGUUCCGGUGGAGGGCUCG [#2 Exclusion - Arginine A Attempt #29 (Inspired by Omei)] | 125 | 119 | 121 | 371 | 187
CGCGCGCGUUGAGAGGUGCGCGCGAAUGAUACCAGUAUAUAAGAAUACCCUUGGCAGCAUAAGAAAGAUAUAGUGAUGUUGUAUA [SSTheophA.F] | 346 | 130 | 250 | 308 | 228
CGGAUGUAGUGAUGUUAUAUUAGAUGUAGACGAGGACCGGUACGGCCGCCACUCGAAACGGCUACUAGCGCGUUGCGAGGUGUGC [ExTryptoA.CJ] | 737 | 525 | 686 | 784 | 480
CGUAAGGAUUGACGACUGCAGAGCAAAAUAAAGGAUAUCGCAGCGUCGAGAAGGUUAUCGUGCGCCAGUGAUGUUGGCGGUAGUC [theeternabot_sameState_KL_FMN_A_22] | 84.1 | 135 | 108 | 181 | 87
CGUACGGUUUCUUUCUUUCCGUACGCGUGCCGAGGACCGGUACGGCCGCCACUCGCUACAGCCUAGUGAUGUUAGGCAAUUCUUU | 107 | 111 | 112 | 124 | 89.9
CGUCACAAACCUAGUCAAGUGAUGUUUGGCCGAGGACCGGUACGGCCGCCACUCGCUCCUGUCACCCAUUCGUGUGUCGCGGACU [theeternabot_exclusion_KL_Trp_A_5] | 377 | 148 | 316 | 473 | 297
CGUUUAUAGCAGGAUACCAGUACCCAUAAAGUACGUUAAUAGUAGAGUGAUGUUCUGAAGUACCCUUGGCAGCUUCCGGUAAGUG [#25 K4 Theophylline B Exclusion] | 163 | 342 | 239 | 298 | 134
CUAACGGUACGAGUGAUGUUCAGCAAGGAUACCAGCGGACAGUCACGCCCUUGGCAGCCUAGUUUCUACCCGUCGGAAUUUCUUA [theeternabot_sameState_KL_Theo_A_2] | 623 | 366 | 599 | 461 | 527
CUAAUCGCUCAUGAUACCAGCUAGUGAUGUUAGCCCGUCAAGCUGAGGGUUCAUCCACCCAGCCCUUGGCAGCAUUCUCGGUCAG [theeternabot_exclusion_KL_Theo_B_8] | 441 | 313 | 387 | 449 | 364
CUAGCUAGCAUGGAAACAUGCUAGCUAGAUUAGGAUAUGACGUAAGUCAGAAGGGAUAAAUGGAGUGAUGUUCCGGACGCAAGUC [#2 Same State - FMN A Attempt #4 (HarryS)] | 255 | 237 | 247 | 295 | 186
CUAUGGAAACAUAGGAAUCGGGAAACCGAUACCAGUAUGGAAACAUACCCUUGGCAGCGGAAUGAUUCAACGGAGUGAUGUUCCG [Theophylline A K4 20] | 395 | 327 | 399 | 293 | 321
CUAUGGAAACAUAGGAGUCGGGAAACCGAUACCAGUAUGGAAACAUACCCUUGGCAGCGGAAUGAUUCAACGGAGUGAUGUUCCG [Theophylline A K4 19] | 458 | 366 | 400 | 322 | 366
CUCAGAAAGACUGUCCAAGUGAUGUUUGGACGAGGACCGGUACGGCCGCCACUCGCUGUUGCGAAUGUUAAGGUACGAGUCGCGG [theeternabot_exclusion_KL_Trp_A_30] | 84.8 | 89.7 | 89.1 | 101 | 91.7
CUCGAGUGAUGUUCGAUUAUUUAUACAGAUACCAGUGAAUUUUAACACCCUUGGCAGCUGGUAGUAUCUUUGUAAUUUUAACUAG [JR_ExcTheophyA_Sub003] | 133 | 181 | 147 | 176 | 111
CUGACCAACAGCGAUACCAGCGUGGAGUGAUGUUCCCUGGUCCGGGCUGAUGUUCCCUUGCGCCCUUGGCAGCGCAGAAGCAGGA [Exclusion Theophylline B GF 12] | 296 | 263 | 351 | 303 | 281
CUGAGCCUGACGCAAGUCAGGCUCUGCGAGCGAGGACCGGUACGGCCGCCACUCGGUGCAGUGAUGUUGCAUGGCCGCAAGGCCG [#2 Exclusion - Tryptophan A Attempt #21 (HarryS)] | 254 | 215 | 274 | 218 | 306
CUUAAGGAGUGUCGUGCCGGACACUGGGAAGGAGCGCAAUUCUUUGCAGGUAGGUCGCCCAGUGAUGUUGGGUGGCGCUGUCGAA [Laatonbi] | 190 | 156 | 149 | 156 | 128
CUUCGUAAGGGCCCAGUGAUGUUGGGCACUCGAGGACCGGUACGGCCGCCACUCGCUCCCUAAGUCGCGCGCGUGGGCCACCGCC [Rezariatra] | 128 | 111 | 116 | 102 | 139
CUUGAUGGAAACAUCGAGUAGAUUACUGAUACCAGUAUCGAUAGAUACCCUUGGCAGCAGAAUCAGUAAUCACGAGUGAUGUUCG [Ex Theophylline A K4 7] | 535 | 528 | 555 | 518 | 485
GAACCAGAGGUUGCUGCGGGUUCCAGAGAUACCAGCCGUAUUGAAGGCCCUUGGCAGCUCGAGUGAUGUUCGAGCCGCCUCUGGC [Antius] | 118 | 96.8 | 120 | 103 | 103
GAAGUACAGGCGGCCGCCACUAGUGAUGUUAGUGAUAAAAGAUAAAGUAUAUAUCGGCAUGUAGAUAGGACCGGGCCUGAUGGAG [uiiumullin] | 118 | 296 | 186 | 203 | 298
GAGGUACAGGCGGCCGCCACUAGUGAUGUUAGUGAUAGAAGAUAUAGUAAAUAUCGGCAUGUAGAUAGGACCGGGCCUGGUGGAG [vvgtcmullin] | 291 | 234 | 288 | 327 | 287
